Key:
[1] = molecular target: T1, MLO-Y4 cell surface proteins (Mus musculus, UniProt O35143); assay: Crosslinking/co-immunoprecipitation/mass spectrometry (TMT quantitative proteomics) to identify irisin receptors; assay type: binding; settings: co-precipitated protein Atpif1 (ATIF1_MOUSE)
T1 construct: endogenous in cells; host or cells: MLO-Y4
T1 sequence (O35143 26-106): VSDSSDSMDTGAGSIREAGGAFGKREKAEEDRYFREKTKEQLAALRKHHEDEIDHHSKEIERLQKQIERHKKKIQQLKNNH
Outline: (§1)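 Mouse MLO-Y4 cells were switched to serum-free FreeStyle medium for 4 h, chilled, then exposed to 10 nM His-tagged irisin (or adipsin as control) for 20 min. Cells were crosslinked with 1.5 mM DTSSP (30 min, ice), and bound proteins were pulled down on Ni-NTA and eluted with 250 mM imidazole. Eluates were separated by SDS-PAGE, trypsin-digested in gel, TMT 6-plex labelled and quantified by MS3-based LC-MS/MS on an Orbitrap Fusion Lumos.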

[2] = molecular target: T2, MLO-Y4 cell surface proteins (Mus musculus, UniProt E9PW83); assay: as above; assay type: binding; settings: co-precipitated protein Fam184a (E9PW83_MOUSE)
T2 construct: endogenous in cells; host or cells: MLO-Y4
T2 sequence (E9PW83 1-1143): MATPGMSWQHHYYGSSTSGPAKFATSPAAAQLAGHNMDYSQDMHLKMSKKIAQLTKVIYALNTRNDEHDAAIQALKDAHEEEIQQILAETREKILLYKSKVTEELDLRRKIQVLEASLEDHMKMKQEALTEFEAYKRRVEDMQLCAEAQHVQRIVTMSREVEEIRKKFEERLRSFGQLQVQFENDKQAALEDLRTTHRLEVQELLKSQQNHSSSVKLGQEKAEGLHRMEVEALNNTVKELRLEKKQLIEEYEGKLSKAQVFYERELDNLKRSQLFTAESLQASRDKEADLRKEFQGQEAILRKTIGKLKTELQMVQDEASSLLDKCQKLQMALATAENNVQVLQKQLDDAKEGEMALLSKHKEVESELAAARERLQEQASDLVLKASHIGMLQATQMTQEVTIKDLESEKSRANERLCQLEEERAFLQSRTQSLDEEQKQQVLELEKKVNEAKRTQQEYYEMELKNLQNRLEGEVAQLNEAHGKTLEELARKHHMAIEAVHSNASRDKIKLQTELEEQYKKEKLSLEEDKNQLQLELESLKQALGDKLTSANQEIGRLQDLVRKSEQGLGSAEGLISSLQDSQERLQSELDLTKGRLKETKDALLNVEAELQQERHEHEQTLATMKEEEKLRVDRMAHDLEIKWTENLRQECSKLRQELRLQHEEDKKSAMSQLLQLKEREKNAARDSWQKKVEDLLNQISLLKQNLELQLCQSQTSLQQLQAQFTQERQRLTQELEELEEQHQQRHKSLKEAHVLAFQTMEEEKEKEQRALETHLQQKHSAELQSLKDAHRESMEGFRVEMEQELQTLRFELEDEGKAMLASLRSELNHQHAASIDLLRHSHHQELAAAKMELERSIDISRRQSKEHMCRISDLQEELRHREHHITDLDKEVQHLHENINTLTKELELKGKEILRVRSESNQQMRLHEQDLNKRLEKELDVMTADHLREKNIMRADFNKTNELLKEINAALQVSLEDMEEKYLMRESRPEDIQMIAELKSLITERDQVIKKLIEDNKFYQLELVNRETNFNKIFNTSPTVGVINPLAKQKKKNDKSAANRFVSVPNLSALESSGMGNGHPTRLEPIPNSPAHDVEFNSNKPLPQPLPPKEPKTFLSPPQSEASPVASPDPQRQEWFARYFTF
Outline: as §1

B1: irisin: secreted cleaved form of FNDC5; recombinant human/mouse irisin with C-terminal his tag produced in HEK293 cells (protein)
chain: DSPSAPVNVTVRHLKANSAVVSWDVLEDEVVIGFAISQQKKDVRMLRFIQEVNTTTRSCALWDLEEDTEYIVHVQAISIQGQSPASEPVLFKTPREAEKMASKNKDEVTMKE
modifications: left off: small tags and cut ends
notes: secreted cleaved form of FNDC5; recombinant human/mouse irisin with C-terminal his tag produced in HEK293 cells
**Q.** What does the source list for B1?
**A.** TMT signal-to-noise ratio [1]: 229.372; irisin/adipsin TMT signal-to-noise ratio [1]: 0.505; TMT signal-to-noise ratio [2]: 8.102; irisin/adipsin TMT signal-to-noise ratio [2]: 0.009

Source: patent US20210063414A1, “METHODS FOR PREVENTING AND/OR TREATING BONE LOSS CONDITIONS BY MODULATING IRISIN” (Dana-Farber Cancer Institute, Inc., priority 2018, published 2021)
